Results published in US20210009714A1 (Regeneron, published 2021).
One block for each binder: values may come before it.

Tests used:
[1] = target: IgG1 Fc/Fc monospecific antibody; assay: flow cytometry sandwich: antibody displayed on cells by CSCP ScFv-FcγR, hFc block, FITC-labeled Ab6 as detection molecule
[2] = target: IgG1 Fc/Fc* bispecific antibody; assay: as above
[3] = target: IgG4 Fc/Fc monospecific antibody; assay: as above
[4] = target: IgG4 Fc/Fc* bispecific antibody; assay: as above
human Fc* homodimer = target: T1, human Fc* homodimer (human); assay: SPR (Biacore 2000); mAb captured on anti-mouse-Fc surface, Fc dimer injected; 1:1 fit
T1 construct: also called Fc*/Fc*; human ΔAdpFc polypeptide
Description: Measurements to determine binding affinities and kinetic constants were made on a Biacore 2000 instrument. […] Kinetic association (kₐ) and dissociation (kd) rate constants were determined by processing and fitting the data to a 1:1 binding model using Scrubber 2.0 curve fitting software.

[5] = target: IgG1 Fc/Fc monospecific antibody; assay: flow cytometry sandwich: antibody displayed on cells by CSCP FcγR, labeled Ab6 as detection molecule
[6] = target: IgG1 Fc/Fc* bispecific antibody; assay: as above
[7] = target: IgG1 Fc*/Fc* monospecific antibody; assay: as above
Tie2 = target: T2, Tie2 (UniProt Q02763 23-748, limits assumed); assay: BIAcore
T2 construct: also called Tie2 receptor
T2 sequence (Q02763 23-748 limits assumed): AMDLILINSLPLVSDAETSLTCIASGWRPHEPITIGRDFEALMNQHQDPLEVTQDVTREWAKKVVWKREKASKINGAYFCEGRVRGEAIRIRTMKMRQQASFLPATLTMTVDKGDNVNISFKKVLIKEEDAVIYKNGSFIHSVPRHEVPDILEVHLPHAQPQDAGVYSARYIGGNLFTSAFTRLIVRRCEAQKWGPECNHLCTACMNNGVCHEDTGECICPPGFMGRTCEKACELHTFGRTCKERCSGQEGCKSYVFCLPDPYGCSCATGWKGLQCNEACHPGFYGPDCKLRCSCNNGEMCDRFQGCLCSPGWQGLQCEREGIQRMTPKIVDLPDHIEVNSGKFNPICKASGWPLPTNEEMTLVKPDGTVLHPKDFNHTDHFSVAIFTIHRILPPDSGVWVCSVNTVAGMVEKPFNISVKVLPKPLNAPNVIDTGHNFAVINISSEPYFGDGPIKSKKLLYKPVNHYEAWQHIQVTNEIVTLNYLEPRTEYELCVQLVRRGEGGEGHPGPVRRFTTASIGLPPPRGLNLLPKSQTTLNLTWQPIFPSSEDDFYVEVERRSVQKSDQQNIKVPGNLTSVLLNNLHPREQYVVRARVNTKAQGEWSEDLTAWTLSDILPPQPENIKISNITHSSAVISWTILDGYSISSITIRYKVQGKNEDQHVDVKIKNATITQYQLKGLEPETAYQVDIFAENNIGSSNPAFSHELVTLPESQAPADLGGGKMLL

[8] = target: IgG1 Fc/Fc monospecific antibody; assay: flow cytometry sandwich: antibody displayed on cells by CSCP FcγR, labeled Ab2 as detection molecule
[9] = target: IgG1 Fc/Fc* bispecific antibody; assay: as above
[10] = target: IgG4 Fc/Fc monospecific antibody; assay: as above
[11] = target: IgG4 Fc/Fc* bispecific antibody; assay: as above
[12] = target: IgG4 Fc*/Fc* monospecific antibody; assay: as above

- MFI [1]: 15
- MFI [2]: 500
- MFI [3]: 15
- MFI [4]: 500
- t1/2 (human Fc* homodimer): 19 min
- MFI [5]: 200
- MFI [6]: 200
- MFI [7]: 200
B1: Ab6 (antibody, mouse IgG2a, kappa, V domains shown)
VH: EVQLVESGGAIVKPGGSHRVSCEASGFTFSNAWMSWVRQAPGRGLEWVGRILSKTDGGTTDYAAPVKDRFTISRDDSKNMLFLQMDSLKIEDTAVYFCTTADFWSAYSSDYWGQGTLVTVSS
VL: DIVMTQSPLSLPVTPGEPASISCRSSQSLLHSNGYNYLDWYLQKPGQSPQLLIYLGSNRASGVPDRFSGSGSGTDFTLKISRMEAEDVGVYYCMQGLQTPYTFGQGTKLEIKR
notes: also called Fc*-specific Ab6; Ab6 anti-Fc* antibody

- Kd (Tie2): 174 nM
B2: FD1-hFc (Fc fusion, UniProt Q15389 277-498, looked up)
chain: REEEKPFRDCADVYQAGFNKSGIYTIYINNMPEPKKVFCNMDVNGGGWTVIQHREDGSLDFQRGWKEYKMGFGNPSGEYWLGNEFIFAITSQRQYMLRIELMDWEGNRAYSQYDRFHIGNEKQNYRLYLKGHTGTAGKQSSLILHGADFSTKDADNDNCMCKCALMLTGGWWFDACGPSNLNGMFYTAGQNHGKLNGIKWHYFKGPSYSLRSTTMMIRPLDF
notes: also called FD1-Fc; not shown: hFc

- MFI [8]: 350
- MFI [9]: 500
- MFI [10]: 200
- MFI [11]: 200
- MFI [12]: 200
B3: Ab2 (antibody, V domains shown)
VH: QLQQSGAELAKPGASVKMSCKASGYTFTNYWIHWEKQRPEQGLEWIGYINPNTGHTEYNQKFKDKATLTADRSSSTAYMQLSSLTSEDSAVYFCARTYSGSSHFDYWGQGTTL
VL: DIVMTQTPVSLPVSLGDQASISCRSSQSLVHNNGDTFLHWYLQKPGQSPKLLIYKVSNRFSGVPDRFSGSGSGTDFTLKISRVEAEDLGVYFCSQTTLIPRTFGGGTKLEI
notes: Monoclonal from Velocimmune mice, captured on an anti-mouse-Fc surface in the SPR study; also called Fc-specific Ab2; Ab2 anti-Fc antibody
